T1: human IL-2Rγ (recombinant protein and on cells) (human, UniProt P31785 23-262, limits assumed)
T1 construct: recombinant protein and of cells together; also called IL2RG; CD132
T1 sequence: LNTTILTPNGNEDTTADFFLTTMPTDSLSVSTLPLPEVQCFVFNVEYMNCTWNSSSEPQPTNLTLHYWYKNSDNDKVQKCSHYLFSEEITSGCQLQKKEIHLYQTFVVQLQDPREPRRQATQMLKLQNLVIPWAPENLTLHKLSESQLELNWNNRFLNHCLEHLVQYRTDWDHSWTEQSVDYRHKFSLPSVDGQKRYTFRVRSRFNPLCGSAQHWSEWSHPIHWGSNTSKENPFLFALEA

T2: cynomolgus IL-2Rγ (recombinant protein and on cells) (cynomolgus, UniProt A0A2K5VGJ6 23-254)
T2 construct: also called cynomolgus IL-2RG
T2 sequence: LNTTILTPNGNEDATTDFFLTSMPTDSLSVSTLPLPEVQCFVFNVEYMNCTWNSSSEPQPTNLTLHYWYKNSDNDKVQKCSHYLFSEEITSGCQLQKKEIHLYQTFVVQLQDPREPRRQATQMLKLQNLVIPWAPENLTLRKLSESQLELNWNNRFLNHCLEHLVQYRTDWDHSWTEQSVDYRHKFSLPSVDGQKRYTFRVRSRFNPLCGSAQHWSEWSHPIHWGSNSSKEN

T3: IL-7R (Sino Biological) (UniProt P16871 21-239)
T3 sequence (looked up): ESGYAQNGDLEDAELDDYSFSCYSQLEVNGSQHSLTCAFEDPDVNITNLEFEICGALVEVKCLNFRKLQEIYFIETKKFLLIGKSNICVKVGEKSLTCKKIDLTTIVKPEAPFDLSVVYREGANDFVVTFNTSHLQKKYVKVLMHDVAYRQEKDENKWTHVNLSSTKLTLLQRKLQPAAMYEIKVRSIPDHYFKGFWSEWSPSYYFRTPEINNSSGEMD

T4: human IL-2Rα (Sino Biological) (human, UniProt P01589 22-213, limits assumed)
T4 construct: Bought recombinant protein; also called IL2RA; CD25
T4 sequence: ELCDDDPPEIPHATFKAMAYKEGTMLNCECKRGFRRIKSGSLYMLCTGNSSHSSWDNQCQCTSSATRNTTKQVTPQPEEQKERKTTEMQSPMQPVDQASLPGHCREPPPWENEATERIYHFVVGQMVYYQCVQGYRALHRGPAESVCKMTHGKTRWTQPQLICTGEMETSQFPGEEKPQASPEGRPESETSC

T5: IL-9R (R&D Systems) (UniProt Q01113 41-270, limits assumed)
T5 sequence (looked up): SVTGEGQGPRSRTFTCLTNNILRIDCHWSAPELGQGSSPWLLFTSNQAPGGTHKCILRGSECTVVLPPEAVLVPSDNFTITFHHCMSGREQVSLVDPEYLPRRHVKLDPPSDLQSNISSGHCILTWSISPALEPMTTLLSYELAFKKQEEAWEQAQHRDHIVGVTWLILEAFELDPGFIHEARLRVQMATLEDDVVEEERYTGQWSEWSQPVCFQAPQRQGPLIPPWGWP


Legend:
[1] = target: T1, human IL-2Rγ (recombinant protein and …); experiment: biolayer interferometry (Octet Qk384), antibody captured on anti-human Fc (AHC) sensors, antigen 7.8-500 nM in solution, 1:1 fit, KD = kd/ka
Protocol: (§1) All kinetics measurement experiments were performed on a ForteBio Octet Qk384 instrument using anti-human Fc capture (AHC, 18-5005) sensors. The bispecific heavy chain-only antibodies and antigens were diluted to final concentrations in Kinetics buffer (0.02% Tween20, 0.1% BSA, 0.05% sodium azide, 1X PBS). Kinetics measurements were against the following antigens: human IL-2RB (AcroBiosystems), human TL-2RG (AcroBiosystems), cynomolgus IL-2RB (Sino Biological), cynomolgus IL-2RG (expressed and purified in house using ExpiCHO expression system followed by Ni-NTA his-tag purification). The antibodies were loaded on the AHC sensors at 5 μg/mL for maximum loading. Following a short baseline in Kinetics buffer, the sensors were exposed to a series of analyte concentrations (7.8 nM to 500 nM) for association step and background subtraction was used to correct for sensor drifting. Dissociation was monitored in Kinetics buffer. The capture surfaces were regenerated for 60s. All experiments were performed with shaking at 1000 rpm. ForteBio's data analysis software was used to fit the data to a 1:1 binding model to extract an association rate and dissociation rate. The KD was calculated using the ratio kd/ka.

[2] = target: T2, cynomolgus IL-2Rγ (recombinant protein …); experiment: as above
Protocol: as §1

[3] = target: T3, IL-7R (Sino Biological); experiment: Octet (BLI) off-rate, antibody captured on AHC sensors
Protocol: (§2) All off-rate measurements were performed on an Octet Qk384 instrument (ForteBio), in 96-well microplates at 25° C. using anti-human IgG Fc capture (AHC, 18-5005) sensors with a shake speed of 1000 rpm. For off-rate determination, the antibodies/antibody fragments were loaded on the AHC sensors at 5 μg/mL. Following a short baseline in kinetics buffer (0.02% Tween20, 0.1% BSA, 0.05% sodium azide, 1X PBS). Offrate measurements were done for the following: human IL-2Rβ (AcroBiosystems), human IL-2Ry (Sino Biological), cynomolgus IL-2RP (Sino Biological), cynomolgus IL-2Rγ (expressed and purified in house using ExpiCHO expression system followed by Ni-NTA His-tag purification), mouse IL-2Rγ (Sino Biological), mouse IL-2Rβ (Sino Biological), human IL-2Rα (Sino Biological), IL-4R (Sino Biological), IL-7R (Sino Biological), IL-9R (R&D Systems) and IL-21R (Sino Biological). The following antibodies were used as positive controls to verify target binding and reagent quality: anti-human IL-9R (R&D Systems), anti-human IL-21R (R&D Systems), anti-human IL-7R (R&D Systems) and anti-human IL-4Ra (R&D Systems). The loaded sensors were then submerged in wells containing antigen at 100 nM concentration for association step. Dissociation was monitored in kinetics buffer. The capture surfaces were regenerated for 60 s. ForteBio data analysis software was used to fit the data to a 1:1 binding model to extract an association rate and dissociation rate.

[4] = target: T4, human IL-2Rα (Sino Biological); experiment: as above
Protocol: as §2

[5] = target: T5, IL-9R (R&D Systems); experiment: as above
Protocol: as §2

[6] = target: IL-21R (Sino Biological) (UniProt Q9HBE5 20-232); experiment: as above
Protocol: as §2

IL-21R (Sino Biological), sequence (Q9HBE5 20-232 limits assumed): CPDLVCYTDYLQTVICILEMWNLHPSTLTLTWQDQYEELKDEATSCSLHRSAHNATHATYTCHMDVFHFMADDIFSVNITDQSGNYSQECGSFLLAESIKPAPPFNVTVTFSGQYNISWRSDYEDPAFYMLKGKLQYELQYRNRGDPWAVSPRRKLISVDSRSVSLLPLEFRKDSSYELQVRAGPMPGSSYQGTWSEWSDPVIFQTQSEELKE

| Binder | Kd [1] [nM] | Kd [2] [nM] | binding result [3] | binding result [4] | binding result [5] | binding result [6] |
| --- | --- | --- | --- | --- | --- | --- |
| BsAb-2 (IL2RB_F09G**IL2RG_F16B) (bispecific antibody, human IgG4, V domains shown, Heavy chain-only bispecific on silenced, stabilised human IgG4 Fc, knobs-into-holes, no light chains; not shown: C-terminal His-tag on the knob chain) V domain 1: QVQLQESGPGLVKSSETLSLTCTVSGGSISSSDWWSWVRQPPGKGLEWIGEIDHSGSTNYNPSLMSRVTISVDKSKNQFSLKLSSVTAADTAVYFCARGSWELTDAFDIRGQGTLVTVSS V domain 2: QVQLVESGGGLVKPGGSLRLSCAASGFTFSDYYMSWIRQAPGKGLEWVSYISSSGSTIYYADSVKGRFTISRDNAKNSLYLQMNSLRAEDTAVYYCARGDAVSITGDYRGQGTLVTVSS | 17.1 | 50.2 | no binding (tested: antigen at 100 nM) | no binding (tested: antigen at 100 nM) | no binding (tested: antigen at 100 nM) | no binding (tested: antigen at 100 nM) |
| BsAb-6 (IL2RB_F18E**IL2RG_F16A) (bispecific antibody, human IgG4, V domains shown, Heavy chain-only bispecific on silenced, stabilised human IgG4 Fc, knobs-into-holes, no light chains; not shown: C-terminal His-tag on the knob chain) V domain 1: QVQLVESGGGVVQPGRSLRLSCAASGFTFSSYGMHWVRQAPGKEREWVAVISYDGSNKYYTDSVKGRFTISRDNSKNTLYLEMNSLRAEDTAVYYCARDLDYDVLTGDPVGGFDIWGQGTLVTVSS V domain 2: QVQLVESGGGLVKPGGSLRLSCAASGFTFSDYYMSWIRQAPGKGLEWVSSISSSGDTIYYADSVQGRFTLSRDNAENSLFLQMNSLRAEDTAVYYCARGDAVSITGDYRGQGTLVTVSS | 1.88 | 5.42 | no binding (tested: antigen at 100 nM) | no binding (tested: antigen at 100 nM) | no binding (tested: antigen at 100 nM) | no binding (tested: antigen at 100 nM) |
| BsAb-4 (IL2RB_F09G**IL2RG_F18A) (bispecific antibody, human IgG4, V domains shown, Heavy chain-only bispecific on silenced, stabilised human IgG4 Fc, knobs-into-holes, no light chains; not shown: C-terminal His-tag on the knob chain) V domain 1: QVQLQESGPGLVKSSETLSLTCTVSGGSISSSDWWSWVRQPPGKGLEWIGEIDHSGSTNYNPSLMSRVTISVDKSKNQFSLKLSSVTAADTAVYFCARGSWELTDAFDIRGQGTLVTVSS V domain 2: QVQLVESGGDLVKPGGSLRLSCAASGFTFSDYYMSWLRQAPGKELEWVSHISSSGTTTYYADSVEGRFTITRDNAKNSLYLQMNSLRAEDTAVYYCARGAAVAPGFDSRGQGTLVTVSS | 2.93 | 5.81 | no binding (tested: antigen at 100 nM) | no binding (tested: antigen at 100 nM) | no binding (tested: antigen at 100 nM) | no binding (tested: antigen at 100 nM) |

Results, then the binder that gave them:

| Kd [1] [nM] | Kd [2] [nM] | binding result [3] | binding result [4] | binding result [5] | binding result [6] | Binder |
| --- | --- | --- | --- | --- | --- | --- |
| 1.79 | 4.87 | no binding (tested: antigen at 100 nM) | no binding (tested: antigen at 100 nM) | no binding (tested: antigen at 100 nM) | no binding (tested: antigen at 100 nM) | BsAb-1 (IL2RB_F09C**IL2RG_F16A) (bispecific antibody, human IgG4, V domains shown, Heavy chain-only bispecific on silenced, stabilised human IgG4 Fc, knobs-into-holes, no light chains; not shown: C-terminal His-tag on the knob chain) V domain 1: QVQLQESGPGLVKPSGTLSLTCAVSGGSISSSDWWSWVRQPPGKGLEWIGEIDHSGSTNYNPSLMSRVTISVDKSKNQFSLKLSSVTAADTAVYFCGRGSWELSDAFDIRGQGTLVTVSS V domain 2: QVQLVESGGGLVKPGGSLRLSCAASGFTFSDYYMSWIRQAPGKGLEWVSSISSSGDTIYYADSVQGRFTLSRDNAENSLFLQMNSLRAEDTAVYYCARGDAVSITGDYRGQGTLVTVSS |
| 1.43 | 3.58 | no binding (tested: antigen at 100 nM) | no binding (tested: antigen at 100 nM) | no binding (tested: antigen at 100 nM) | no binding (tested: antigen at 100 nM) | BsAb-3 (IL2RB_F09G**IL2RG_F16C) (bispecific antibody, human IgG4, V domains shown, Heavy chain-only bispecific on silenced, stabilised human IgG4 Fc, knobs-into-holes, no light chains; not shown: C-terminal His-tag on the knob chain) V domain 1: QVQLQESGPGLVKSSETLSLTCTVSGGSISSSDWWSWVRQPPGKGLEWIGEIDHSGSTNYNPSLMSRVTISVDKSKNQFSLKLSSVTAADTAVYFCARGSWELTDAFDIRGQGTLVTVSS V domain 2: QVQLVESGGGLVKPGGSLRLSCAASGFTFNDYYMSWIRQAPGKGLEWVSHISSSGSTIYYADSVKGRFTVSRDNANNSLYLQMHSLRAEDTAVYYCARGDAVSITGDYRGQGTLVTVSS |
| 20.1 | 41.5 | no binding (tested: antigen at 100 nM) | no binding (tested: antigen at 100 nM) | no binding (tested: antigen at 100 nM) | no binding (tested: antigen at 100 nM) | BsAb-5 (IL2RB_F09K**IL2RG_F16B) (bispecific antibody, human IgG4, V domains shown, Heavy chain-only bispecific on silenced, stabilised human IgG4 Fc, knobs-into-holes, no light chains; not shown: C-terminal His-tag on the knob chain) V domain 1: QVQLQESSPGLVKPSETLSLTCTVSGGSISSSNWWSWVRQPPGKGLEWIGEISHSGSTNYNPSLKSRVTISVDKSKNQFSLRLSSVTAADTAVYFCGRGSWELTDAFDIRGQGTLVTVSS V domain 2: QVQLVESGGGLVKPGGSLRLSCAASGFTFSDYYMSWIRQAPGKGLEWVSYISSSGSTIYYADSVKGRFTISRDNAKNSLYLQMNSLRAEDTAVYYCARGDAVSITGDYRGQGTLVTVSS |
